# How the values were obtained:
# BiP 19–654 [1] = molecular target: T1, BiP 19–654 (human, UniProt P11021 19-654)
# BiP 19–654 [2] = molecular target: T1, BiP 19–654; remark: listed apart in the source
# BiP 19–654 V415A = BiP 19–654 V415A (human, UniProt P11021 19-654, V415A); test: cell-based or functional assay
# BiP 19–654 V241A = BiP 19–654 V241A (human, UniProt P11021 19-654, V241A); test: cell-based or functional assay
# BiP 19–654 R197A = BiP 19–654 R197A (human, UniProt P11021 19-654, R197A); test: cell-based or functional assay
# BiP 19–654 D238A = BiP 19–654 D238A (human, UniProt P11021 19-654, D238A); test: cell-based or functional assay
# BiP 19–654 E217A = BiP 19–654 E217A (human, UniProt P11021 19-654, E217A); test: cell-based or functional assay
# BiP 19–654 T229A T518A = molecular target: T2, BiP 19–654 T229A T518A (human, UniProt P11021 19-654, T229A | T518A); test: SEC; 5 µM FICD incubated with 100 µM BiP in HKM buffer with 5 mM ATP for at least 2 h; Superdex 10/300 75 pg; conditions: both partners purified
# T2 construct: BiP, human, residues 19-654 of NP_005338.1; source: E. coli Rosetta (DE3), purified (Ni-NTA, SEC)
# BiP 19–654 [3] = molecular target: T1, BiP 19–654; test: cell-based or functional assay
# BiP 28–549 T229A = molecular target: T3, BiP 28–549 T229A (human, UniProt P11021 28-549, T229A, T518 covalently linked through TReND-2 to C404 of FICD); test: crystal structure; complex covalently linked through TReND-2 (C404 of FICD to T518 of BiP); crystallised with 1 mM AMP-PNP, 1 mM MgCl2, 10% glycerol; 0.2 M NaCl, 0.1 M Na/K phosphate pH 6.2, 10% PEG 8000, 19 °C; conditions: both partners purified
# T3 construct: BiP, human, residues 28-549 of NP_005338.1; also called complexed BiP; source: E. coli Rosetta (DE3), purified (Ni-NTA, SEC); not shown: His6, N-terminal, cleaved
# T3 sequence (P11021 28-549 T229A): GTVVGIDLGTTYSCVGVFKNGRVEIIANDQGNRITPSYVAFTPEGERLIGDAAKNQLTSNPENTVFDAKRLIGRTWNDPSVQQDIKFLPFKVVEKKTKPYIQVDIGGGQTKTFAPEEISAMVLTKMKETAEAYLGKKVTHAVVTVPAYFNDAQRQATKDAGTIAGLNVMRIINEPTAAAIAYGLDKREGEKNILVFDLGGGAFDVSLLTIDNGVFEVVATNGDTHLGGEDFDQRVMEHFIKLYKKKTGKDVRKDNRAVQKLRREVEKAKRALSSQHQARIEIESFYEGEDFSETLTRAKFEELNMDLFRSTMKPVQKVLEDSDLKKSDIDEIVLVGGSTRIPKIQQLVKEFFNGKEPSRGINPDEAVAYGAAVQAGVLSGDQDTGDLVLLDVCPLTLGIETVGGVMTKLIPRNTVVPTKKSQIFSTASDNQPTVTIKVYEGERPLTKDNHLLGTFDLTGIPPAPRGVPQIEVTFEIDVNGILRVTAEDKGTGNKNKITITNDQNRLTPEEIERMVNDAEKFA
# T1 sequence (P11021 19-654): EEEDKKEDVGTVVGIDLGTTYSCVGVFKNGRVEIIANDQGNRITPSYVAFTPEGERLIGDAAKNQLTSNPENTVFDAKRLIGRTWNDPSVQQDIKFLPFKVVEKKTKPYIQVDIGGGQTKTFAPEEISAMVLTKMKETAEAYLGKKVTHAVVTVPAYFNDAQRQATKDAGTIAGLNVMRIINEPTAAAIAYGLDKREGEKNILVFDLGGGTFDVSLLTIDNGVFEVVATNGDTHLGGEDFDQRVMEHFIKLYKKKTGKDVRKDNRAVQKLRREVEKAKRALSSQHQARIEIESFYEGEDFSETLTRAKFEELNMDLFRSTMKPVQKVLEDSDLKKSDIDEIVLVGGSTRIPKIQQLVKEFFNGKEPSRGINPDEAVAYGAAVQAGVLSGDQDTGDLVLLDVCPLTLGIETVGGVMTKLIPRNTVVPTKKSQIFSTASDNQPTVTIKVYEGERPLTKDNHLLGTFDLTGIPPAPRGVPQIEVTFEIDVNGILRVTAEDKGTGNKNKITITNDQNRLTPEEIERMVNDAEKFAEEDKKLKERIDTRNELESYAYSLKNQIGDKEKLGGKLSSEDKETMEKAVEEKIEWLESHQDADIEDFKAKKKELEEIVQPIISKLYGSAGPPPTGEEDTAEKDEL
# Sequence of BiP 19–654 V241A (P11021 19-654 V241A): as the sequence (P11021 19-654) above, with V223A counted along it
# Sequence of BiP 19–654 E217A (P11021 19-654 E217A): as the sequence (P11021 19-654) above, with E199A counted along it
# Sequence of BiP 19–654 D238A (P11021 19-654 D238A): as the sequence (P11021 19-654) above, with D220A counted along it
# Sequence of BiP 19–654 R197A (P11021 19-654 R197A): as the sequence (P11021 19-654) above, with R179A counted along it
# Sequence of BiP 19–654 V415A (P11021 19-654 V415A): as the sequence (P11021 19-654) above, with V397A counted along it
# T2 sequence (P11021 19-654 T229A/T518A): as the sequence (P11021 19-654) above, with T211A, T500A counted along it
binder,measurement,setting,value
FICD 102–458 L258D E404A (enzyme) GKLEARAALNQALEMKRQGKREKAQKLFMHALKMDPDFVDALTEFGIFSEEDKDIIQADYLYTRALTISPYHEKALVNRDRTLPLVEEIDQRYFSIIDSKVKKVMSIPKGNSALRRVMEETYYHHIYHTVAIEGNTLTLSEIRHILETRYAVPGKSDEEQNEVIGMHAAMKYINTTLVSRIGSVTISDVLEIHRRVLGYVDPVEAGRFRTTQVLVGHHIPPHPQDVEKQMQEFVQWLNSEEAMNLHPVEFAALAHYKLVYIHPFIDGNGRTSRLLMNLILMQAGYPPITIRKEQRSDYYHVLAAANEGDVRPFIRFIAKCTETTLDTLLFATTEYSVALPEAQPNHSGFKETLPVKP,"AMPylation of BiP 19–654 WT by the FICD 102–458 L258D Fic-domain mutant, 30 min, western blot with αAMP antibody, against FICD L258D",BiP 19–654 [1],75 % impaired
FICD 102–458 L258D K124A (enzyme) GKLEARAALNQALEMKRQGKREAAQKLFMHALKMDPDFVDALTEFGIFSEEDKDIIQADYLYTRALTISPYHEKALVNRDRTLPLVEEIDQRYFSIIDSKVKKVMSIPKGNSALRRVMEETYYHHIYHTVAIEGNTLTLSEIRHILETRYAVPGKSDEEQNEVIGMHAAMKYINTTLVSRIGSVTISDVLEIHRRVLGYVDPVEAGRFRTTQVLVGHHIPPHPQDVEKQMQEFVQWLNSEEAMNLHPVEFAALAHYKLVYIHPFIDGNGRTSRLLMNLILMQAGYPPITIRKEQRSDYYHVLEAANEGDVRPFIRFIAKCTETTLDTLLFATTEYSVALPEAQPNHSGFKETLPVKP,"AMPylation of BiP 19–654 WT by the FICD 102–458 L258D mutant, 30 min, western blot with αAMP antibody, against FICD L258D",BiP 19–654 [2],> 98 % reduction
FICD 102–458 L258D K127A (enzyme) GKLEARAALNQALEMKRQGKREKAQALFMHALKMDPDFVDALTEFGIFSEEDKDIIQADYLYTRALTISPYHEKALVNRDRTLPLVEEIDQRYFSIIDSKVKKVMSIPKGNSALRRVMEETYYHHIYHTVAIEGNTLTLSEIRHILETRYAVPGKSDEEQNEVIGMHAAMKYINTTLVSRIGSVTISDVLEIHRRVLGYVDPVEAGRFRTTQVLVGHHIPPHPQDVEKQMQEFVQWLNSEEAMNLHPVEFAALAHYKLVYIHPFIDGNGRTSRLLMNLILMQAGYPPITIRKEQRSDYYHVLEAANEGDVRPFIRFIAKCTETTLDTLLFATTEYSVALPEAQPNHSGFKETLPVKP,"AMPylation of BiP 19–654 WT by the FICD 102–458 L258D mutant, 30 min, western blot with αAMP antibody, against FICD L258D",BiP 19–654 [2],> 98 % reduction
"FICD 102–458 L258D (enzyme, human, UniProt Q9BVA6 102-458, looked up, FICD (HYPE), human, residues 102-458 of NP_009007.2; also called FICD L258D; monomeric FICD; source: E. coli Rosetta (DE3), purified (Ni-NTA, SEC)) GKLEARAALNQALEMKRQGKREKAQKLFMHALKMDPDFVDALTEFGIFSEEDKDIIQADYLYTRALTISPYHEKALVNRDRTLPLVEEIDQRYFSIIDSKVKKVMSIPKGNSALRRVMEETYYHHIYHTVAIEGNTLTLSEIRHILETRYAVPGKSDEEQNEVIGMHAAMKYINTTLVSRIGSVTISDVLEIHRRVLGYVDPVEAGRFRTTQVLVGHHIPPHPQDVEKQMQEFVQWLNSEEAMNLHPVEFAALAHYKLVYIHPFIDGNGRTSRLLMNLILMQAGYPPITIRKEQRSDYYHVLEAANEGDVRPFIRFIAKCTETTLDTLLFATTEYSVALPEAQPNHSGFKETLPVKP","AMPylation of the BiP 19–654 mutant by FICD 102–458 L258D, 30 min, western blot with αAMP antibody, against BiP WT",BiP 19–654 V415A,70 % decrease
same,"AMPylation of the BiP 19–654 mutant by FICD 102–458 L258D, 30 min, western blot with αAMP antibody, against BiP WT",BiP 19–654 V241A,> 95 % decrease
same,"AMPylation of the BiP 19–654 mutant by FICD 102–458 L258D, 30 min, western blot with αAMP antibody, against BiP WT",BiP 19–654 R197A,> 80 % decrease
same,"AMPylation of the BiP 19–654 mutant by FICD 102–458 L258D, 30 min, western blot with αAMP antibody, against BiP WT",BiP 19–654 D238A,> 80 % decrease
same,"AMPylation of the BiP 19–654 mutant by FICD 102–458 L258D, 30 min, western blot with αAMP antibody, against BiP WT",BiP 19–654 E217A,> 80 % decrease
same,binding result,BiP 19–654 T229A T518A,binds
"FICD 102–445 E234G E404C^TReND-2 (enzyme, human, UniProt Q9BVA6 102-445, looked up, TReND-2 (thiol-reactive nucleotide derivative) on C404) GKLEARAALNQALEMKRQGKREKAQKLFMHALKMDPDFVDALTEFGIFSEEDKDIIQADYLYTRALTISPYHEKALVNRDRTLPLVEEIDQRYFSIIDSKVKKVMSIPKGNSALRRVMEETYYHHIYHTVAIGGNTLTLSEIRHILETRYAVPGKSLEEQNEVIGMHAAMKYINTTLVSRIGSVTISDVLEIHRRVLGYVDPVEAGRFRTTQVLVGHHIPPHPQDVEKQMQEFVQWLNSEEAMNLHPVEFAALAHYKLVYIHPFIDGNGRTSRLLMNLILMQAGYPPITIRKEQRSDYYHVLCAANEGDVRPFIRFIAKCTETTLDTLLFATTEYSVALPEAQP","rate of covalent ternary complex formation (SDS-PAGE, densitometry) with 0.5 mM ATP against 0.5 mM ADP",BiP 19–654 [3],~15 fold faster
same,"rate of covalent ternary complex formation (SDS-PAGE, densitometry) without nucleotide against 0.5 mM ATP",BiP 19–654 [3],173 fold slower
"FICD 102–445 T168A T183A E234G L258D E404C^TReND-2 (enzyme, human, UniProt Q9BVA6 102-445, looked up, TReND-2 (thiol-reactive nucleotide derivative) on C404, covalently linked to T518 of BiP, FICD (HYPE), human, residues 102-445 of NP_009007.2; also called FICD^TReND-2; HYPE; source: E. coli Rosetta (DE3), purified (Ni-NTA, SEC)) GKLEARAALNQALEMKRQGKREKAQKLFMHALKMDPDFVDALTEFGIFSEEDKDIIQADYLYTRALAISPYHEKALVNRDRALPLVEEIDQRYFSIIDSKVKKVMSIPKGNSALRRVMEETYYHHIYHTVAIGGNTLTLSEIRHILETRYAVPGKSDEEQNEVIGMHAAMKYINTTLVSRIGSVTISDVLEIHRRVLGYVDPVEAGRFRTTQVLVGHHIPPHPQDVEKQMQEFVQWLNSEEAMNLHPVEFAALAHYKLVYIHPFIDGNGRTSRLLMNLILMQAGYPPITIRKEQRSDYYHVLCAANEGDVRPFIRFIAKCTETTLDTLLFATTEYSVALPEAQP",binding result,BiP 28–549 T229A,binds
